Data on five molecules can be found in article PMC5206748, “Disruption of cell adhesion by an antibody targeting the cell-adhesive intermediate (X-dimer) of human P-cadherin” (Scientific Reports, 2017).

Positions count from the first letter of the chain named. Names may count otherwise.

Holding throughout (settings): both partners purified
Experiment [1] has as its target T1, human P-cadherin EC12 K14E (residues 1-213) (Homo sapiens, UniProt P22223, point mutant).
T1 construct: human P-cadherin, residues 1-213 with K14E; numbers count on: the mature protein; also called strand-swap dimer construct; source: E. coli Rosetta2 (DE3), purified (Ni-NTA, SUMO tag cleaved with Ulp1, SEC)
In words: SPR; scFv (100 nM) captured on anti-His6-tag antibody immobilised on a CM5 chip; P-cadherin construct as analyte (1.25-20 nM strand-swap dimer, 6.25-100 nM monomer); global fitting; the paper puts the lower KD for the strand-swap dimer down to an avidity effect.

The target of experiment [2] is T2, human P-cadherin MEC12 K14E (additional Met + residues 1-213) (Homo sapiens, point mutant).
T2 construct: human P-cadherin, residues 1-213 with K14E; numbers count on: the mature protein; also called monomer construct; source: E. coli Rosetta2 (DE3), purified (Ni-NTA, SUMO tag cleaved with Ulp1, SEC)
Described as above.

Experiment [3] deals with T1, human P-cadherin EC12 K14E (residues …). In words: ITC; iTC200; antibody in the cell (15-30 μM), P-cadherin construct in the syringe (150-300 μM); 15 °C; one-site binding model.
The target in experiment [4] is T2, human P-cadherin MEC12 K14E (additional …). The experiment is described as above.
In experiment [5] the target is T3, human P-cadherin MEC1 (additional Met + residues 1-129) (Homo sapiens).
T3 construct: numbers count on: the mature protein; source: E. coli Rosetta2 (DE3), purified (Ni-NTA, SUMO tag cleaved with Ulp1, SEC)
T3 chain: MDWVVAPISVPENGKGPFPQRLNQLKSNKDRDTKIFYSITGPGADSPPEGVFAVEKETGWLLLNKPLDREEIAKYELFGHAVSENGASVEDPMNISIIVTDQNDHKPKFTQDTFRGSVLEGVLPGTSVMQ
Description: SPR; Biacore T200; MEC1 immobilised on a CM5 chip by amine coupling (~250 RU); scFv as analyte, 0.49-62.5 nM; 25 °C; 10 mM HEPES, 150 mM NaCl, 3 mM CaCl2, pH 7.5, 0.05% Tween-20; global fitting.

Experiment [6] concerns the target T4, human E-cadherin EC12 (Homo sapiens, UniProt P12830).
T4 construct: human E-cadherin, domains EC1-EC2; also called E-cad EC12; source: E. coli Rosetta2 (DE3), purified (Ni-NTA, SUMO tag cleaved with Ulp1, SEC)
Description: SEC; the solution left in the ITC cell (antibody 25 μM titrated with human E-cadherin EC12 250 μM at 30 °C) injected on Superose 12 10/300 GL; 0.5 mL/min; 25 °C; 10 mM HEPES, 150 mM NaCl, 3 mM CaCl2, pH 7.5.

The target of the next experiment is T5, human P-cadherin MEC12 (human, UniProt P22223).
T5 construct: additional Met at the N-terminus of EC12; P-cadherin (cadherin-3), human, extracellular domains EC1-EC2; Fast exchange between monomer and X-dimer; also called X-dimer construct; source: E. coli Rosetta2 (DE3), SUMO fusion, Ni-NTA, SUMO cleaved with Ulp1, SEC
Description: ITC; antibodies (15-30 μM) in the cell titrated with cadherins (150-300 μM); 15 °C; one-site binding model.

In experiment [7] the target is T6, human E-cadherin EC12 (Homo sapiens, UniProt P12830).
T6 construct: E-cadherin (cadherin-1), human, extracellular domains EC1-EC2; source: E. coli Rosetta2 (DE3), SUMO fusion, Ni-NTA, SUMO cleaved with Ulp1, SEC
Description: ITC + SEC; antibodies (25 μM) in the cell titrated with human E-cadherin EC12 (250 μM) in the syringe, 30 °C; the solution left in the cell was then run on Superose 12 in 10 mM HEPES, 150 mM NaCl, 3 mM CaCl2, pH 7.5.

A further experiment concerns the target T7, human P-cadherin MEC1 (Homo sapiens, UniProt P22223).
T7 construct: additional Met before the N-terminus; P-cadherin (cadherin-3), human, extracellular domain EC1; source: E. coli Rosetta2 (DE3), SUMO fusion, Ni-NTA, SUMO cleaved with Ulp1, SEC
Description: SPR; MEC1 immobilised on a CM5 chip by amine coupling (~250 RU); antibodies as analyte 0.49-62.5 nM; 25 °C; 10 mM HEPES, 150 mM NaCl, 3 mM CaCl2, pH 7.5, 0.05% Tween-20; global fitting.

Experiment [8] has as its target T8, human P-cadherin MEC12 (additional Met + residues 1-213) (Homo sapiens).
T8 construct: numbers count on: the mature protein; also called X-dimer construct; source: E. coli Rosetta2 (DE3), purified (Ni-NTA, SUMO tag cleaved with Ulp1, SEC)
In words: ITC; iTC200; antibody in the cell (15-30 μM), P-cadherin construct in the syringe (150-300 μM); 15 °C; one-site binding model.

T2 sequence (chain, as listed by the source point mutant | K14E K14E): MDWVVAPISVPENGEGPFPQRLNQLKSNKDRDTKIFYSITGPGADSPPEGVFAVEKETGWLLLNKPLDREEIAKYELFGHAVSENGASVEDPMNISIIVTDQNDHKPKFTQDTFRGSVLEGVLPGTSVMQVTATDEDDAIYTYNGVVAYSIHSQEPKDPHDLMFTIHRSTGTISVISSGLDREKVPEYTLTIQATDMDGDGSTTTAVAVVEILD

B1: TSP7 single-chain Fv (anti-human P-cadherin antibody) (scFv, V domains shown)
VH: QVQLQESGPELVKPGASVKMSCKASGYSFTAYNMHWVKQSHGKSLEWIGFIDPYSGIITYNQTFKGKATLTVDKSSSTAYMQLNSLTSEDSAVYYCARRGYYDGGFDYWGQGTTLTVSS
VL: DIQMTQTTSSLSASLGDRVTISCRASQDITNYLNWYQQKPDGTVKLLIYYTSRLHSGVPSRFSGSGSGTDYSLTISNLEQEDIATYFCQQDSKHPRTFGGGTKLEIK
notes: VH of TSP7; flexible (Gly4-Ser)3 peptide linker between VH and VL; VL of TSP7; Construct pelB-VH-GS-linker-VL-His6 in pRA2; Residue numbers run through the whole scFv (Asp229 and Arg234 lie in the VL); also called TSP7 (WT); TSP7 WT; not shown: His6, C-terminal, kept
With B1, the Kd in experiment [1] is 0.24 nM; in experiment [2] it was 63 nM; in experiment [5] it was 8.7 nM. Moreover, the koff was 0.00015 s⁻¹ in experiment [1], 0.03 s⁻¹ in [2] and 0.026 s⁻¹ in [5]. The kon worked out at 620000 M⁻¹ s⁻¹ in [1], 480000 M⁻¹ s⁻¹ in experiment [2] and 3e+06 M⁻¹ s⁻¹ in experiment [5]. Further, the “stoichiometry N” value in experiment [3] was 0.71; in experiment [4], 0.74. The binding result in the experiment with human E-cadherin EC12 [6] is listed as “no binding”.

B2: TSP7 S77R single-chain Fv (scFv, V domains shown)
VH: B1 VH with S77R
VL: B1 VL
notes: as the VH of Dm1 (TSP7, PDB 5JYL) with S77R; flexible (Gly4-Ser)3 peptide linker between VH and VL; as the VL of Dm1 (TSP7, PDB 5JYL); source: purified to homogeneity in a soluble monomeric form; not shown: His6, C-terminal, kept
With B2, in experiment [1], the Kd amounted to 0.53 nM, the koff was 0.00039 s⁻¹ and the kon is 730000 M⁻¹ s⁻¹. Moreover, in experiment [2], the Kd stood at 71 nM, the koff is 0.032 s⁻¹ and the kon stood at 450000 M⁻¹ s⁻¹.

B3: TSP7 (anti-human P-cadherin antibody, scFv format) (scFv, V domains shown)
VH: B1 VH
VL: B1 VL
notes: VH of TSP7 (antibody from mice immunised with human P-cadherin EC1-EC5); flexible (Gly4-Ser)3 peptide linker; VL of TSP7; Construct pelB-VH-GS-linker-VL-His6 in pRA2; also called TSP7 WT; not shown: His6, C-terminal, kept
Turning to B3, the “stoichiometry N” value with human P-cadherin MEC12 was 1.5. Also, the binding result with human E-cadherin EC12 [7] is reported as “no binding”. Besides, in the experiment with human P-cadherin MEC1, the Kd is about 10 nM.

B4: TSP11 single-chain Fv (anti-human P-cadherin antibody) (scFv, V domains shown)
VH: QVQLQQPGTELVKPGASVKLSCKASGYTFTRYWINWVKQRPQGGLEWIGNIYPGSNITNYNEKFKNKATLTVDTSSNTAYMQLSSLTSDDSAVYYCAREGIYDGYFPLFPYWGQGTLVTVSA
VL: ENVLTQSPAIMAASPGEKVTMTCSASSSVSSGNFHWYQQKPGTSPKLWIYRTSNLASGVPARFSGSGSGTSYSLTISSMEAEDAATYYCQQWSGYPWTFGGGTKLEIK
notes: VH of TSP11; flexible (Gly4-Ser)3 peptide linker between VH and VL; VL of TSP11; Construct pelB-VH-GS-linker-VL-His6 in pRA2
Take B4: the “stoichiometry N” value in experiment [3] stood at 0.61. In addition, the “stoichiometry N” value in experiment [4] is 0.61. In [8], the “stoichiometry N” value stood at 0.71. In [5], the Kd is 14 nM, the koff worked out at 0.0039 s⁻¹ and the kon is 280000 M⁻¹ s⁻¹. For the same molecule, in the experiment with human E-cadherin EC12 [6], the binding result is “no binding”.

B5: TSP11 (anti-human P-cadherin antibody, scFv format) (scFv, V domains shown)
VH: B4 VH
VL: B4 VL
notes: VH of TSP11 (antibody from mice immunised with human P-cadherin EC1-EC5); flexible (Gly4-Ser)3 peptide linker; VL of TSP11; Construct pelB-VH-GS-linker-VL-His6 in pRA2; not shown: His6, C-terminal, kept
For the molecule B5, the binding result with human E-cadherin EC12 [7] is “no binding”. This molecule also showed a Kd with human P-cadherin MEC1 of about 10 nM.
